According to the RNAGym collection of RNA variant scans (doi:10.1073/pnas.2313332121):

B1: TPR t1 (parent)
chain: GACCAAUCUGCCCUCAGAGCUCGAGAACAUCUUCGGAUGCAGAGGAGGCAGGCUUCGGUGGCGCGAUAGCGCCAACGUCCUCAACCUCCAAUGCAUCCCACCACAUGAUGAUGCCUGAAGAGCCUUGGUUUUUUG

Variants of: B1
Assay: polymerase ribozyme fitness, log enrichment relative to wild type (log ratio); higher = more active; in vitro selection for triplet polymerase activity
How it was run: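 Only genotypes with ≥10 input reads and ≥1 read per output were kept after Illumina sequencing of input and output libraries. These libraries were PCR-built, transcribed mutants of each subunit of a heterodimeric triplet polymerase ribozyme, each put through one triplicate in vitro selection round with frozen incubation at −7 °C, gel excision of extended constructs, streptavidin-bead capture and RT-PCR. Fitness is a logarithmic ratio of genotype enrichment to wild-type enrichment, from inverse-variance-weighted replicate averages, with the logarithm in base 2.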

Variant | polymerase ribozyme fitness (log ratio)
A16G C62A C97U | -3.6
A50U G120A | -0.296
G48A G63U A84G G128U | -3.63
C62G C104A | -4.04
C22U U81A C88G | -5.9
A41C G57C A90G C97A | -4.54
A6C A29U C49A A66C G71C A119U | -4.4
C82G G128A U133G | -2.64
G42U C115U | -1.27
C8G U87A U96G G110U G122C U129C | -3.4
C20G G61A A90C A95U | -3.88
C49U C72U A75U U106G | -3.16
C8U G63U A90U G113C | -3.6
G36U C62A C123U G128C | -3.69
C22A C72G | -4.59
A27C G45U U106C | -4.75
U78G U112G | 1.33
G60A A121G | 1.66
C62A C104A G113A | -4.4
A46G G60A | 0.0971
G60U G63A | -4.69

Variant | polymerase ribozyme fitness (log ratio)
A95G A121U | 2.11
C12U A43C C72A A90U | -0.685
G36U U78C | -1.61
A46G A66G | -1.48
A43C G48C G113C A119C G120U A121G | -2.55
A74U C82U G120A G122U | -0.0704
G61A C82G A105C | -2.79
A6U A29U C34A G69U A90G A95U | -2.59
C72U U125G | -2.26
G51U G58C G113C | -5.43
C11G C49U | 0.783
A5C G69U A90U | -0.485
A50C G52C C73U | -4.07
C56A C123U | 1.2
A75G A90C C101G | -4.09
C28U G45A G63U U78C | -5
G42A A83C U112A | -1.42
C13U C82U C85A G117A | -2.68
C3U C13U C70U G128U | -1.99
C13A G69U | -1.23
C8A C80U C88U U133A | -0.694

Variant | polymerase ribozyme fitness (log ratio)
G39A G69C U112A | -1.42
C22G G63C G69C U112A | -5.1
G17A G71C | -3.64
A2G C13U C53G C72G | -0.413
G10A G61A A91C C123U | 0.979
C11U A83U C101G | -2.28
C79G G127U | -2.87
A5U C40U G42C | -2.03
G52U A105C | -3.57
G47U C102U C124A U129C | -2.98
C12U C79A U106C | -1.41
C62A G120U G122C | -1.92
G44A G61C U78C C79G U112G U133G | -3.14
C13A C49G G122U C124G | -0.569
G47A A119U | -1.02
A50U C56U G71C C123A | -6.51
U38G G71U U92G G93A U112A | -6.86
C11U A29G C53U C73G | -1.9
C72A C123A U126G | -0.782
C8G A41G A83G G110U A121G | -3.81
A5C A29G C49G C70A U92C G117U | -7.38

Variant | polymerase ribozyme fitness (log ratio)
A74U A119G | 0.812
C80A G117U | -5.19
U54A C98U U129G U133G | -3.2
C73A U87C A105U | -1.35
C11U C22G A26C C64U | -4.03
C89A C114A | -2.6
C8G C70U A74U C98U G110A | -6.03
A50C A111C C115U U129A | -6.02
A66C C72G C115A | -1.65
G63A A84U U92G G117A | -6.18
G48U G110A | -1.84
G44U G71A | -2.39
C12U A66U C123A | 0.936
G63U C64U | -6.21
G60A U131A | 0.546
C56A U92G C101G A121G | -4.49
C53A C62A U125C | -6.14
C104A G113C | -4.17
A95G C124U U130G | 0.565
G39A G57U U116A U125A | -4.53
G45C G63C | -2.1
